Laboratory results reported in US20240165209A1, “PLACENTAL ALKALINE PHOSPHATASE FOR REDUCING THE LOSS OF RED BLOOD CELLS, WHITE BLOOD CELLS, AND PLATELETS IN CHEMOTHERAPY TREATED CANCER PATIENTS” (ZOLTAN LABORATORIES, LLC, priority 2021, published 2024).

Key:
[1] = amifostine treatment, intravenous route, cancer patients; cited from earlier work
[2] = system: bone marrow MSCs; experiment: DNA synthesis ([3H]thymidine incorporation) in MSCs; assay type: cell-based, human; conditions: 20 hours
Excerpt: For the experiment, bone marrow aspirates were taken from normal human adult donors after informed consent. For the preparation of bone marrow MSCs, essentially a widely used technique was used as described earlier by others [Pittenger, M. F., Mackay, A. M., Beck, S. C., et al. (1999) Multilineage potential of adult human mesenchymal stem cells. Science 284, 143-147]. Briefly, nucleated cells were isolated with a pre-prepared commercial density gradient (Lymphoprep, Nycomed, Pharma, Oslo, Norway) and re-suspended in Dulbecco's modified Eagle's medium (DMEM) (GIBCO, Grand Island, NY) supplemented with 10% fetal calf serum (FCS), 50 U/ml of penicillin, and 50 μg/ml of streptomycin (GIBCO). All nucleated cells were plated in 25-cm^2 flasks (BD Falcon, Bedford, MA) at 37° C. in humidified atmosphere containing 5% CO2. After 24 hours, non-adherent cells were removed and cryopreserved in liquid nitrogen until use. The remaining adherent cells were thoroughly washed with Hanks balanced salt solution (HBSS) (GIBCO). Fresh complete culture medium was added and replaced every 3 or 4 days (twice a week). When cells grew to about 80% confluence, they were suspended and harvested by incubating with a ready-made solution containing 0.25% trypsin and 1 mM EDTA (Sigma-Aldrich, St. Louis, MO) for 5 minutes at 37° C.; this cell suspension is designated as passage 1. These cells were further expanded with 1:3-1:5 splitting in 175-cm^2 flasks (BD Falcon). For the determination of DNA synthesis, cells were divided into 12-well plates in the complete medium and let the cells grow to about 60% confluence. After changing the spent medium for fresh complete medium (i.e., containing 10% fetal calf serum), cells were treated for 20 hours with 20-100 μM ATP and/or 200 nM PLAP as well as 50-200 μM Cyp in the absence or presence of 200 nM PLAP. For labeling newly formed DNA, cells received 1,130,000 d.p.m. [^3H] thymidine for the last 4 hours of the treatment period. DNA synthesis was determined as described earlier [She, Q.-B., Mukherjee, J. J., Huang, J.-S., Crilly, K. S. and Kiss, Z. (2000) Growth factor-like effects of placental alkaline phosphatase in human fetus and mouse embryo fibroblasts. FEBS Lett. 469, 163-167]. The data is expressed as d.p.m. [^3H] thymidine incorporated into DNA/well (n=3).

[3] = system: mouse bone marrow-derived hematopoietic stem cells (HSCs); conditions: 3 days
Procedure: Bone marrow was harvested by flushing bones from female C57/BL/6 mice in Fischer medium (Thermo Fisher Scientific; catalogue no. 21475025) containing 20% horse serum (Hyclone, Logan, UT), 100 Unit/ml penicillin, […] streptomycin (Gibco, BRL), 0.015 fungizone (Gibco, BRL), and 0.1 μM hydrocortisone sodium succinate (SynoPharm; Hamburg, Germany). Pooled stem cells were seeded into 25 cm 3 flasks (10 ml cell suspension) and after 3 days of incubation at 33° C. in 5% CO2 in air in the absence of PLAP, they were plated into 12-well plates and were incubated in the absence (n=8) or presence of 50 μg/ml PLAP (n=8) for additional 3 days.
In a follow up experiment with hematopoietic stem cells, the same incubation medium in 12-well plates contained either no other addition (n=8) or contained 200 μM Cyp without (n=8) or with 50 μg/ml PLAP (n=8) for 3 days.

[4] = purified PLAP; cited from earlier work
[5] = Spectrophotometric assay of PLAP enzyme activity (hydrolysis of 4-nitrophenylphosphate); assay type: biochemical; conditions: 22° C., pH 9.8, 10 mM 4-nitrophenylphosphate
Excerpt: Human PLAP (Type XXIV, 1020 units of total activity) in a partially purified form was obtained commercially from Sigma-Aldrich. A butanol extraction of placental tissue performed by Sigma-Aldrich to obtain the partially purified material was followed by chromatography steps as described in [Chang, T.-C., Huang, S.-M, Huang, T.-M. and Chang, G.-G. Human placental alkaline phosphatase: An improved purification procedure and kinetic studies. Eur. J. Biochem. 209, 241-247, 1992] to obtain an essentially pure preparation of PLAP as determined by sodium dodecyl sulfate-polyacrylamide gel electrophoresis (SDS-PAGE). The enzyme activity of PLAP was assayed using a spectroscopic method to monitor the hydrolysis of 4-nitrophenylphosphate (as an increase in absorbance at 410 nm) at room temperature (22° C.) as described in [Chang, G.-G., Shiao, M.-S., Lee, K.-R. and Wu, J.-J., Modification of human placental alkaline phosphatase by periodate-oxidized 1,N6-ethenoadenosine monophosphate. Biochem. J., 272, 683-690, 1990]. Activity analysis of 5-10-μg purified enzyme was performed in 1 mL incubation volume containing 50 mM Na2CO3/NaHCO3, 10 mM MgCl2, 10 mM 4-nitrophenylphosphate at pH 9.8. The extinction coefficient of 4-nitrophenol was taken as 1.62×10^4 M^−1 cm^−1. An enzyme activity of 1 U (unit) is defined as 1 μmole substrate hydrolyzed per 1 min at 22° C. at pH 9.8. […]

Molecule: NCCCNCCSP(=O)(O)O [amifostine]
- patients with reversible clinical hypotension, protracted nausea and vomiting [1]: 15-20%

Molecule: Nc1ncnc2c1ncn2[C@@H]1O[C@H](COP(=O)(O)OP(=O)(O)OP(=O)(O)O)[C@@H](O)[C@H]1O [ATP]
- d.p.m. [^3H] thymidine incorporated into DNA/well ([2]; ATP 20 μM, no PLAP): 70,738 ± 1,367 d.p.m.
- d.p.m. [^3H] thymidine incorporated into DNA/well ([2]; ATP 50 μM, no PLAP): 55,808 ± 1,480 d.p.m.
- d.p.m. [^3H] thymidine incorporated into DNA/well ([2]; ATP 100 μM, no PLAP): 38,601 ± 1,940 d.p.m.

B1: PLAP: highly purified native placental alkaline phosphatase derived from human placenta via conventional purification methods (protein, UniProt P05187 23-506, looked up)
Alkaline phosphatase, …: IIPVEEENPDFWNREAAEALGAAKKLQPAQTAAKNLIIFLGDGMGVSTVTAARILKGQKKDKLGPEIPLAMDRFPYVALSKTYNVDKHVPDSGATATAYLCGVKGNFQTIGLSAAARFNQCNTTRGNEVISVMNRAKKAGKSVGVVTTTRVQHASPAGTYAHTVNRNWYSDADVPASARQEGCQDIATQLISNMDIDVILGGGRKYMFRMGTPDPEYPDDYSQGGTRLDGKNLVQEWLAKRQGARYVWNRTELMQASLDPSVTHLMGLFEPGDMKYEIHRDSTLDPSLMEMTEAALRLLSRNPRGFFLFVEGGRIDHGHHESRAYRALTETIMFDDAIERAGQLTSEEDTLSLVTADHSHVFSFGGYPLRGSSIFGLAPGKARDRKAYTVLLYGNGPGYVLKDGARPDVTESESGSPEYRQQSAVPLDEETHAGEDVAVFARGPQAHLVHGVQEQTFIAHVMAFAACLEPYTACDLAPPAGTTD
- change of the number of hematopoietic stem cells ([3]; 50 μg/ml PLAP, no Cyp): did not significantly change
- decrease of the number of cells by Cyp ([3]; 200 μM Cyp, presence of 50 μg/ml PLAP): 10%
- d.p.m. [^3H] thymidine incorporated into DNA/well ([2]; PLAP 200 nM + ATP 20 μM): 90,708 ± 2,518 d.p.m.
- d.p.m. [^3H] thymidine incorporated into DNA/well ([2]; PLAP 200 nM + ATP 50 μM): 84,740 ± 3,231 d.p.m.
- d.p.m. [^3H] thymidine incorporated into DNA/well ([2]; PLAP 200 nM + ATP 100 μM): 80,916 ± 2,252 d.p.m.
- d.p.m. [^3H] thymidine incorporated into DNA/well ([2]; PLAP 200 nM + Cyp 50 μM): 81,887 ± 3,173 d.p.m.
- d.p.m. [^3H] thymidine incorporated into DNA/well ([2]; PLAP 200 nM + Cyp 200 μM): 74,798 ± 2,408 d.p.m.
- d.p.m. [^3H] thymidine incorporated into DNA/well ([2]; PLAP 200 nM, no ATP): 89,865 ± 2,021 d.p.m.
- half-life time in human circulation [4]: about 7 days
- specific activity of purified PLAP [5]: 685 Units per mg protein
